Reference: publication PMC9747694

Molecular target: SARS-CoV-2 XBB.1 S2P spike trimer (SARS-CoV-2)
Assay: SPR; spike captured through its C-terminal His-tag on a CM5 chip with anti-His antibodies (His Capture Kit); serially diluted human ACE2-Fc flowed over; HBS-EP+ buffer; 25°C; Biacore T200, single-cycle mode; 1:1 binding model

Chain of human ACE2-Fc protein (from pcDNA3-sACE2-WT(732)-IgG1) (Q9BYF1 18-732): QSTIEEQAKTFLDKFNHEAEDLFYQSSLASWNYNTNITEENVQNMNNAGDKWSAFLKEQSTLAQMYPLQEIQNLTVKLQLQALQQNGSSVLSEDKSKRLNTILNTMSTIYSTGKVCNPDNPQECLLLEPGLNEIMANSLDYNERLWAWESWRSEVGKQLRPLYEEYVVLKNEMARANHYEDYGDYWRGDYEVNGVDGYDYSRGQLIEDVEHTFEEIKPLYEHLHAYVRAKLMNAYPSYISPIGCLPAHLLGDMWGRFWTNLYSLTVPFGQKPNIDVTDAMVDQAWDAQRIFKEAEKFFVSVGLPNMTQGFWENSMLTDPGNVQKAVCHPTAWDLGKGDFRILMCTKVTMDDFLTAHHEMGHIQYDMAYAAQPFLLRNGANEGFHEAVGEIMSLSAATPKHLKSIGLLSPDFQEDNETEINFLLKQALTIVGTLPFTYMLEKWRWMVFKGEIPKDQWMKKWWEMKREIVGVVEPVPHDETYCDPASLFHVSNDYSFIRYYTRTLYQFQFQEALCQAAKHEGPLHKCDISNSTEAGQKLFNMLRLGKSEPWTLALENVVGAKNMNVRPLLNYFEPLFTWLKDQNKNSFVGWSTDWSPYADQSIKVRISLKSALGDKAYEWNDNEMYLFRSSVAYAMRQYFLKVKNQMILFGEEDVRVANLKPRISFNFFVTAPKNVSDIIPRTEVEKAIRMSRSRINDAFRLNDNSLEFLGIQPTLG

**Q.** For “human ACE2-Fc protein (from pcDNA3-sACE2-WT(732)-IgG1) (from UniProt Q9BYF1 18-732) (Fc fusion)”, which Kd is on record?
**A.** 2.06 nM
